Where two headings read alike, the source gives them in different places.
Columns and labels:
[1] = biological target: S. aureus RNase P RNA; assay: Filter binding / gel-shift assay of RNase P protein to RNase P RNA
Description: The RNase P RNA/protein interactions were investigated by gel mobility shift and filter binding experiments.
Binding isotherm of RNase P RNA obtained by filter binding assay was asswssed. The 3′-end labeled RNA was mixed with the protein in the binding buffer containing 20 mM K-Hepes, pH8.0, 0.01% NP-40, 400 mM NH4OAc, 10 mM MgCl2, and 5% glycererol. The Kd value was generated by fitting the data with Grafit 4 one-site ligand binding equation: % binding=plateau/(1+Kd/[S. aureus protein]).

[2] = tested on: p6AT-1; assay: Cleavage of minimal substrate p6AT-1 by RNase P RNA or holoenzyme (gel, autoradiography); assay type: biochemical
Description: The chemically synthesized 42nt RNA molecule p6AT-l was 5′ end-labeled with high specific activity [γ-^32p] ATP ([…]) using bacteriophage T4 polynucleotide kinase. The labeling was performed in a 10 μl reaction at 37° C. for 30 min. The enzyme was heat-inactivated at 95° C. for 2 min. To remove salts, unincorporated nucleotides and the enzyme, p6AT-1 was gel purified from a 20% polyacrylamide TBE gel with 7M urea. The RNA was extracted from the gel slice and precipitated with 300 mM NaOAc and 2.5 volumes 100% ethanol. After a spin at 14,000 g and 4° C. the RNA pellet was washed twice with chilled 70% ethanol. The pellet was air dried and subsequently resuspended in 50 μl water. 0.5 μl were spotted onto a filter paper disk and counted in a scintillation counter (Cherenkov analysis).
(§1) E. coli M1 RNA is able to cleave ptRNA^met or the minimal substrate p6AT-1 in 100 mM NH4Cl, 100 mM TrisCl pH 7.5, 100 mM MgCl2. The conditions for cleavage of either substrate by S. aureus SP RNA were unknown and clearly deviated from those optimized for E. coli. A large number of different buffer conditions were investigated in order to determine optimal buffer conditions for either substrate cleavage by the S. aureus ribozyme.
(§2) Cleavage reactions (20 μl) were all performed at 37° C. for 30 min with 100 nM SP RNA and an additional 200 nM SP protein in the holoenzyme reactions. Substrates (ptRNA^met or p6AT-1) were added in trace amounts (single-turnover reactions). Cleavage was monitored by size resolution of the intact precursor and the cleaved leader sequence by denaturing gel elctrophoresis and autoradiography or visualization on the phosphorimager (Molecular Dynamics Storm 860).

[3] = tested on: E. coli ptRNA^met; assay: Cleavage of ptRNAmet by RNase P RNA or holoenzyme (gel, autoradiography); assay type: biochemical; details: 100 mM TrisCl pH8, 100 mM MgCl2, 5% PEG
Description: E. coli ptRNA^met, a substrate for RNase P, was transcribed in vitro by T7 RNA polymerase (Epicenter) in the presence of [α-32P] UTP to internally label the RNA. The DNA template pGem3Z-ptRNA was linearized with BstNI restriction endonuclease to allow run-off transcription. The transcription was performed in a 20 μl reaction at 37° C. for 60min. To remove unincorporated nucleotides the 93 nt RNA (sequence shown below) was cleaned under non-denaturing conditions using a CLONTECH Chroma-Spin 10 column. To calculate the specific activity of the RNA probe, 1 μl samples were removed before and after cleaning, mixed with 5 ml scintillation cocktail and counted in a scintillation counter. ptRNAmet in pGem-3Z, sequence of the transcript (93mer) 5′→3′ [SEQ ID NO: 12]: GGGCGAAUUCGCCUCGGCUACGUAGCUCAGUUGGUUAGAGCACAUCACUCAUAAUGAUGGGGUCACAGGUUCGAAUCCCGUCGUAGCCACCAG
as §1, §2

[4] = tested on: S. aureus pre-tRNA^phe; assay: RNase P kinetics (Michaelis Menten) with cloned pre-tRNAphe as substrate; assay type: biochemical; details: 50 mM Tris pH8.0, 1 M NH4Cl, 200 mM MgCl2, 5% PEG
Description: A cloned pre-tRNA^phe was used as a substrate for kinetic characterizations for both the holoenzyme and RNA only reactions.
RNase P RNA-only kinetics in the following buffer: 50 mM Tris, pH8.0, 1 M NH4Cl, 200 mM MgCl2, and 5% PEG. […] In both experiments, a cloned pre-tRNA^phe was used as substrate.

Row | Molecule | Kd ([1]; 20 mM K-Hepes pH8.0, 0.01% NP-40, 400 mM NH4OAc, 10 mM MgCl2, 5% glycererol, 3′-end labeled RNA, read-out: Kd, filter binding isotherm) | Kd ([1]; filter binding and gel-shift assays, read-out: binding constant of the complex) | p6AT-1 cleavage ([2]; 10 mM MgCl2, 2M KCl, 100 mM TrisCl pH8, 5% PEG) | p6AT-1 cleavage ([2]; 1M KCl or NH4Cl, 100 mM TrisCl pH7.5, 100 mM MgCl2) | p6AT-1 cleavage, maximal level ([2]; 1.5M KCl, 100 mM TrisCl pH8, 100 mM MgCl2, 5% PEG, 37° C. 30 min, 100 nM SP RNA) | p6AT-1 cleavage ([2]; KCl below 400 mM, 100 mM TrisCl pH8, 100 mM MgCl2, 5% PEG) | ptRNAmet substrate processed ([3]; 150 mM KCl) | ptRNAmet substrate processed ([3]; 800 mM KCl) | ptRNA cleaved ([3]; KCl 1M or above) | pre-tRNAphe processing, RNA-only [4]
1 | S. aureus RNase P protein: 117 amino acid translation product of the S. aureus spp gene, SEQ ID NO:2, expressed as MBP fusion and cleaved (protein, listed as Staphylococcus aureus) MLLEKVYRIKKNADFGRIYKKGHSVANRQFVVYTCNNKEIDHFRLGISVSKKLGNAVLRNKIKRAIRENFKVHKSHILAKDIIVIARQPAKDMTTLQIQNSLEHVLKIAKVFNKKIK | 8 ± 1 nM | 20 nM |  |  |  |  |  |  |  | 
2 | SP RNA: S. aureus RNase P catalytic RNA component, transcribed in vitro from plasmid pSPR with T7 RNA polymerase; gene SEQ ID NO:3 (nucleic acid, listed as Staphylococcus aureus, RNA transcript of gene) DNA: GTTCTGATATTTTGGGTAATCGCTATATTATATAGAGGAAAGTCCATGCTCACACAGTCTGAGATGATTGTAGTGTTCGTGCTTGATGAAACAATAAATCAAGGCATTAATTTGACGGCAATGAAATATCCTAAGTCTTTCGATATGGATAGAGTAATTTGAAAGTGCCACAGTGACGTAGCTTTTATAGAAATATAAAAGGTGGAACGCGGTAAACCCCTCGAGTGAGCAATCCAAATTTGGTAGGAGCACTTGTTTAACGGAATTCAACGTATAAACGAGACACACTTCGCGAAATGAAGTGGTGTACGACAGATGGTTATCACCTGAGTACCAGTGTGACTAGTGCACGTGATGAGTACGATGGAACAGAACATGGCTTATAGAAATATCACTACTA |  |  | No cleavage | hardly any cleavage product detectable | 27% | No cleavage | more than 50% | 82% | 85% | efficiently processed
